The target of this test is T1, human calmodulin (human, UniProt P0DP23 1-149).
T1 construct: Calmodulin, human; in pET-17b; Purification adapted from McCluskey et al. 2007; also called CaM; His-Calmodulin; source: Rosetta E. coli, purified (Ni-NTA, Phenyl-sepharose)
Put plainly: fluorescence polarisation; anisotropy; fluorescently labelled D2 peptide at 0.025 µM final, Par-4 or CaM added from 10x stocks of 0-20 µM; 200 mM NaCl, 200 µM CaCl2, 50 mM Tris pH 7.5; room temperature, ten minutes; average of four trials. The following applies: both partners purified.

Square brackets hold non-standard residues; d marks the D form. Ends that are not written are not given here. * marks the point of attachment. K(5-FAM) = lysine labeled with 5-carboxyfluorescein (5-FAM), C-terminal, O=C(NCCCC[C@H](N*)C(=O)O)c1ccc2c(c1)C(=O)OC21c2ccc(O)cc2Oc2cc(O)ccc21; Arg(Me2s) = CN=C(NC)NCCC[C@H](N)C(=O)O

B1: unmethylated D2 peptide (amino acids 208-243 of the third intracellular loop of the human D2 receptor) (peptide)
peptide: VYIKIYIVLRRRRKRVNTKRSSRAFRAHLRAPLKGN-{K(5-FAM)}
notes: D2 dopamine receptor, human, amino acids 208-243 of the third intracellular loop; The C-terminal fluorophore is carried on an added lysine (K-5-FAM) after residue 243; source: synthetic peptide (21st Century Biochemicals); not shown: FLAG, N-terminal, kept
Broadly, the Kd is the constant that tells how readily two partners part at equilibrium. Regarding B1, the Kd was 57.5 nM.

B2: methylated D2 peptide (amino acids 208-243 of the human D2 receptor, symmetrically dimethylated at Arg 217 and Arg 219) (peptide)
peptide: VYIKIYIVL[Arg(Me2s)]R[Arg(Me2s)]RKRVNTKRSSRAFRAHLRAPLKGN-{K(5-FAM)}
notes: D2 dopamine receptor, human, amino acids 208-243 of the third intracellular loop; Same peptide as m1 but with symmetric dimethylarginine at 217 and 219; The C-terminal fluorophore is carried on an added lysine (K-5-FAM); source: synthetic peptide (21st Century Biochemicals); not shown: FLAG, N-terminal, kept
B2 registered a Kd of 136 nM.

The values above are taken from publication PMC7876548, “Methylation of the D2 dopamine receptor affects binding with the human regulatory proteins Par-4 and Calmodulin” (microPublication Biology, 2021).
